# Assay results: paper PMC10484793
# B1: nuc dsDNA (dsDNA)
# DNA 1: TTTATTTCTGAGACGGGGTCTTGTGTTGCCCAGGCTGGAGTGTAATGGCA
# DNA 2: TGCCATTACACTCCAGCCTGGGCAACACAAGACCCCGTCTCAGAAATAAA
# B2: mito dsDNA (dsDNA)
# DNA 1: TACTCCTCAATTACCCACATAGGATGAATAATAGCAGTTCTACCGTACAA
# DNA 2: TTGTACGGTAGAACTGCTATTATTCATCCTATGTGGGTAATTGAGGAGTA
# B3: mito ssDNA (ssDNA)
# DNA: B2 DNA 1
# Key:
# C17orf80 [1] = molecular target: T1, C17orf80 (Homo sapiens, UniProt Q9BSJ5 1-609); assay: EMSA
# C17orf80 [2] = molecular target: T1, C17orf80; assay: EMSA; remark: listed apart in the source
# T1 sequence (Q9BSJ5 whole entry): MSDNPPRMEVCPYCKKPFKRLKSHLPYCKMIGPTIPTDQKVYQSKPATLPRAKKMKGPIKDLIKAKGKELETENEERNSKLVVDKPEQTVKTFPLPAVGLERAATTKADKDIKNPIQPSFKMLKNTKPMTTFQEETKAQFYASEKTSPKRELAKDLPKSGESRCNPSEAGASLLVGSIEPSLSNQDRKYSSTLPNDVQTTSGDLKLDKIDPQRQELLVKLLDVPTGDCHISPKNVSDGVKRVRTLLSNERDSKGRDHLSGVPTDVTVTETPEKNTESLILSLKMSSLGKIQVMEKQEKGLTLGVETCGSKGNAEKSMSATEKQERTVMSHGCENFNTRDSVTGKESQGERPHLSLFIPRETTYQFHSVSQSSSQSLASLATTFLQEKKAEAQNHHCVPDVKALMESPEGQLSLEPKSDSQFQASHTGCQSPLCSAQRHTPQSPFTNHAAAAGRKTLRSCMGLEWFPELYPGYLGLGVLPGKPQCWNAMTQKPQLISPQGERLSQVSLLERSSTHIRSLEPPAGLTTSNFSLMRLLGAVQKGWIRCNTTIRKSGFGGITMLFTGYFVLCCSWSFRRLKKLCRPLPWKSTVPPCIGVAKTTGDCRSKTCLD
Binder,Kd (C17orf80 [1]),binding result (C17orf80 [2])
B1,49 ± 3 nM,–
B2,46 ± 7 nM,–
B3,–,no binding
